Assay results: the supplement of paper PMC10567573

B1: SOAT2 (parent)
chain: SLGKQKVFIIRKSLLDELMEVQHF

Variants of: B1
Assay: protein stability index of a GFP-peptide fusion (GPS, HEK-293T) (PSI 1-6); higher = more stable
Details: c terminus: a fixed tail appended
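Further: lentivirally expressed fusions sorted by FACS into six bins by GFP to DsRed ratio, PSI derived from sequencing read proportions per bin multiplied by bin number.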

Q: With SLGKQEVFIIRKSLLDELMEVQHF [K6E] as the variant, how does the protein stability index read?
A: 2.05

Q: Which protein stability index does the source give for SLGKQKVFHIRKSLLDELMEVQHF [I9H] here?
A: 2.22

Q: For SLGKQKVFIERKSLLDELMEVQHF [I10E], which protein stability index is on record?
A: 1.47

Q: Which protein stability index does the source give for SLGKQKVFIIRKTLLDELMEVQHF [S13T] here?
A: 2.4

Q: With SLGKQKVFIIWKSLLDELMEVQHF [R11W] as the variant, how does the protein stability index read?
A: 2.53

Q: With SLGKQKVFIIRKSLLDELMEWQHF [V21W] as the variant, how does the protein stability index read?
A: 2.46

Q: Which protein stability index does the source give for SLGKQKVFIIRKSLLDELMEVTHF [Q22T] here?
A: 3.05

Q: With SLGKQKVFIIRKSLLDELMEVYHF [Q22Y] as the variant, how does the protein stability index read?
A: 2.55

Q: Which protein stability index does the source give for SLGKQKVFIIRKSLGDELMEVQHF [L15G] here?
A: 2.5

Q: For ELGKQKVFIIRKSLLDELMEVQHF [S1E], which protein stability index is on record?
A: 2.99

Q: Which protein stability index does the source give for SLGKQKVFIIRKSLLDELMEVQSF [H23S] here?
A: 1.79

Q: For SLGKQKVFIIAKSLLDELMEVQHF [R11A], which protein stability index is on record?
A: 2.83

Q: With SLGKQKVFIIRKSLLDELMEVVHF [Q22V] as the variant, how does the protein stability index read?
A: 1.49

Q: For SLGKQDVFIIRKSLLDELMEVQHF [K6D], which protein stability index is on record?
A: 1.67

Q: With SLGKQKVFINRKSLLDELMEVQHF [I10N] as the variant, how does the protein stability index read?
A: 1.72

Q: With SLGKQKVFIIRKSLLDEEMEVQHF [L18E] as the variant, how does the protein stability index read?
A: 1.8

Q: For SVGKQKVFIIRKSLLDELMEVQHF [L2V], which protein stability index is on record?
A: 3.51

Q: With SLGKQKVFIIRRSLLDELMEVQHF [K12R] as the variant, how does the protein stability index read?
A: 2.75

Q: For SLGKQKVFIIRKSLLDESMEVQHF [L18S], which protein stability index is on record?
A: 1.25

Q: For SLGKQKVFIIRKSLLDELMEVQHP [F24P], which protein stability index is on record?
A: 2.27

Q: For SLGKQKVFIIRKSLLDELWEVQHF [M19W], which protein stability index is on record?
A: 2.41

Q: With SLGKQKVFIIRKSLLDELMEVQHS [F24S] as the variant, how does the protein stability index read?
A: 2.25

Q: With SLGKQKVFPIRKSLLDELMEVQHF [I9P] as the variant, how does the protein stability index read?
A: 2.1

Q: Which protein stability index does the source give for SLGVQKVFIIRKSLLDELMEVQHF [K4V] here?
A: 2.8

Q: Which protein stability index does the source give for SLGKQKAFIIRKSLLDELMEVQHF [V7A] here?
A: 1.72

Q: For SLGKQKVFVIRKSLLDELMEVQHF [I9V], which protein stability index is on record?
A: 2.84

Q: For SLGKQKVFIIRKSLLDDLMEVQHF [E17D], which protein stability index is on record?
A: 2.51

Q: For SLGKQKMFIIRKSLLDELMEVQHF [V7M], which protein stability index is on record?
A: 1.82

Q: Which protein stability index does the source give for SLGKQKVFIIRKSLLDELMEVQTF [H23T] here?
A: 2.07

Q: Which protein stability index does the source give for SLGKQKVFIIRESLLDELMEVQHF [K12E] here?
A: 2.99

Q: For SLGKQKVFIIRKSLLDELPEVQHF [M19P], which protein stability index is on record?
A: 2.08

Q: Which protein stability index does the source give for VLGKQKVFIIRKSLLDELMEVQHF [S1V] here?
A: 2

Q: With SLGKQKWFIIRKSLLDELMEVQHF [V7W] as the variant, how does the protein stability index read?
A: 2.34

Q: For SLGKQKVFIIRKSLLDELMEVQHC [F24C], which protein stability index is on record?
A: 2.09

Q: With SLGKQKVFIIRKSLLDELIEVQHF [M19I] as the variant, how does the protein stability index read?
A: 2.25

Q: For SLGKQKVFIIRKSLLDELMEVQNF [H23N], which protein stability index is on record?
A: 2.52

Q: Which protein stability index does the source give for SLIKQKVFIIRKSLLDELMEVQHF [G3I] here?
A: 3.27

Q: Which protein stability index does the source give for SLAKQKVFIIRKSLLDELMEVQHF [G3A] here?
A: 2.12

Q: For SLGKQKVFIIRKSLLDELMEVEHF [Q22E], which protein stability index is on record?
A: 2.74

Q: For SLGKQKVFIIRKSKLDELMEVQHF [L14K], which protein stability index is on record?
A: 1.69

Q: Which protein stability index does the source give for SLGKQKVFFIRKSLLDELMEVQHF [I9F] here?
A: 2.41

Q: Which protein stability index does the source give for SLGKQKVFIIRKSLLDELMEFQHF [V21F] here?
A: 2.85

Q: With SLGKQKVFIIRKSLLDELMEKQHF [V21K] as the variant, how does the protein stability index read?
A: 2.08

Q: Which protein stability index does the source give for SLGKQKQFIIRKSLLDELMEVQHF [V7Q] here?
A: 1.82

Q: With NLGKQKVFIIRKSLLDELMEVQHF [S1N] as the variant, how does the protein stability index read?
A: 2.68

Q: For SLGKQKVFIIRKSLKDELMEVQHF [L15K], which protein stability index is on record?
A: 3.07

Q: For SLGKTKVFIIRKSLLDELMEVQHF [Q5T], which protein stability index is on record?
A: 2.23

Q: Which protein stability index does the source give for SLGTQKVFIIRKSLLDELMEVQHF [K4T] here?
A: 2.4

Q: For SLGKQKVFIIRKSLLDEKMEVQHF [L18K], which protein stability index is on record?
A: 2.11

Q: With SLGKQKVFIIRKSLLDEQMEVQHF [L18Q] as the variant, how does the protein stability index read?
A: 2.21

Q: For SLGKQKVFIIRKSLLDELMEVSHF [Q22S], which protein stability index is on record?
A: 1.68

Q: With CLGKQKVFIIRKSLLDELMEVQHF [S1C] as the variant, how does the protein stability index read?
A: 2.9

Q: With SLGKQKVFIIRKSLLNELMEVQHF [D16N] as the variant, how does the protein stability index read?
A: 3.3

Q: Which protein stability index does the source give for SLGKQKVFIIRKSLLDELMRVQHF [E20R] here?
A: 2.84

Q: With SLGKQKVFIIRKSLLDELMEVQHE [F24E] as the variant, how does the protein stability index read?
A: 1.71

Q: For SLGKQKVFIIRKSLLDELDEVQHF [M19D], which protein stability index is on record?
A: 2.24

Q: With SLGKQIVFIIRKSLLDELMEVQHF [K6I] as the variant, how does the protein stability index read?
A: 3.06

Q: For SLGKQKVFEIRKSLLDELMEVQHF [I9E], which protein stability index is on record?
A: 1.76

Q: For SLGKQKVFIIRKSLLDMLMEVQHF [E17M], which protein stability index is on record?
A: 2.7

Q: For SLGKQKVFIIRKELLDELMEVQHF [S13E], which protein stability index is on record?
A: 2.55

Q: With SLGYQKVFIIRKSLLDELMEVQHF [K4Y] as the variant, how does the protein stability index read?
A: 2.8

Q: For SLGKQVVFIIRKSLLDELMEVQHF [K6V], which protein stability index is on record?
A: 1.81

Q: With SLGKQKVFIIRKSLLDELMEVQMF [H23M] as the variant, how does the protein stability index read?
A: 1.69

Q: With SLGKQKVFIIRKSLLDEIMEVQHF [L18I] as the variant, how does the protein stability index read?
A: 2.71

Q: For SLGKQKVFIIRKCLLDELMEVQHF [S13C], which protein stability index is on record?
A: 2.25

Q: Which protein stability index does the source give for SLGKQKVTIIRKSLLDELMEVQHF [F8T] here?
A: 1.32

Q: With SLGKQKVFIIRKSLLDELMEVAHF [Q22A] as the variant, how does the protein stability index read?
A: 2.4

Q: Which protein stability index does the source give for SLGKQKYFIIRKSLLDELMEVQHF [V7Y] here?
A: 2.33

Q: For SLGKQKVFIIRKSLLDELMEVQHG [F24G], which protein stability index is on record?
A: 1.68

Q: For SLGKQKVFIIRKNLLDELMEVQHF [S13N], which protein stability index is on record?
A: 2.86

Q: With FLGKQKVFIIRKSLLDELMEVQHF [S1F] as the variant, how does the protein stability index read?
A: 1.92

Q: Which protein stability index does the source give for SLGKQKVFIIRWSLLDELMEVQHF [K12W] here?
A: 3.49

Q: Which protein stability index does the source give for SLGKQKVFIIRKSLLDELMEVQHR [F24R] here?
A: 2.03

Q: With SLGKQKVFIIRKSLLDELMEVKHF [Q22K] as the variant, how does the protein stability index read?
A: 2.35

Q: Which protein stability index does the source give for SLWKQKVFIIRKSLLDELMEVQHF [G3W] here?
A: 2.5

Q: Which protein stability index does the source give for SLGKQKVFIIRMSLLDELMEVQHF [K12M] here?
A: 2.13

Q: With YLGKQKVFIIRKSLLDELMEVQHF [S1Y] as the variant, how does the protein stability index read?
A: 1.34

Q: With SLGKQKVFIIRLSLLDELMEVQHF [K12L] as the variant, how does the protein stability index read?
A: 2.18

Q: For SLGKQKVFIIRKSLLDECMEVQHF [L18C], which protein stability index is on record?
A: 1.95

Q: Which protein stability index does the source give for SLGKQKVFIIRKSLLDELMEVQHN [F24N] here?
A: 1.9

Q: Which protein stability index does the source give for SLGKQKVFIIRKSLIDELMEVQHF [L15I] here?
A: 2.35

Q: Which protein stability index does the source give for SLGDQKVFIIRKSLLDELMEVQHF [K4D] here?
A: 1.91

Q: With SLMKQKVFIIRKSLLDELMEVQHF [G3M] as the variant, how does the protein stability index read?
A: 3.27

Q: Which protein stability index does the source give for SLGKQKVFIIRKSLLDELMEVMHF [Q22M] here?
A: 2.09

Q: With SLGKQKVFIIRKSLLDELMIVQHF [E20I] as the variant, how does the protein stability index read?
A: 2.03

Q: With SLGKQKVFIIRKSLLDELMEIQHF [V21I] as the variant, how does the protein stability index read?
A: 3.07

Q: For SLGKQKVFKIRKSLLDELMEVQHF [I9K], which protein stability index is on record?
A: 1.58

Q: For SLGKQKVFIIFKSLLDELMEVQHF [R11F], which protein stability index is on record?
A: 1.78

Q: Which protein stability index does the source give for SAGKQKVFIIRKSLLDELMEVQHF [L2A] here?
A: 2.94

Q: For SLGKQKVFIIRKSLLDPLMEVQHF [E17P], which protein stability index is on record?
A: 2.21

Q: For SLGKQKVFIIRKSLLDELHEVQHF [M19H], which protein stability index is on record?
A: 2.93

Q: For SLGKQKVFIIRKSLLDCLMEVQHF [E17C], which protein stability index is on record?
A: 3.21

Q: With SLGKQKVFIIRKSLMDELMEVQHF [L15M] as the variant, how does the protein stability index read?
A: 2.37

Q: For SLGKQKVRIIRKSLLDELMEVQHF [F8R], which protein stability index is on record?
A: 2.36
